According to the RNAGym collection of RNA variant scans (doi:10.1073/pnas.2313332121):
Variants at the floor of the assay were thinned out.

B1: TPR 5TU (parent)
chain: GGAUCUUCUCGAUCUAACAAAAAAGACAAAUCUGCCACAAAGCUUGAGAGCAUCUUCGGAUGCAGAGGCGGCAGCCUUCGGUGGCGCGAUAGCGCCAACGUUCUCAACUAUGACACGCAAAACGCGUGCUCCGUUGAAUGGAGUUUAUCAUG

Variants of: B1
Experiment: polymerase ribozyme fitness, log enrichment relative to wild type (log ratio); higher = more active; in vitro selection for triplet polymerase activity
Summary of the method: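 Libraries of mutants in each subunit of a heterodimeric triplet polymerase ribozyme were generated by PCR and transcribed. In triplicate, each went through one in vitro selection round: annealing with biotinylated primer, partner subunit and triplets; frozen incubation at −7 °C; gel excision of extended constructs; streptavidin-bead capture; RT-PCR. Fitness, taken from Illumina sequencing of input and output libraries, is the logarithm of a genotype's enrichment over wild-type enrichment, averaged across replicates with inverse-variance weights. The logarithm is base 2, and genotypes needed ≥10 input reads and ≥1 read per output to be kept.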

Variant | polymerase ribozyme fitness (log ratio)
U61G C105U A115G A147C G152U | ≤ -4.2
A66C C96A A115C C123U G136C | ≤ -4.2
U61A U146C | -0.489
C69G G143C | -4.1
U61C | -1.79
U61G | -1.25
U61A | -1.18
C63G C85U U145A | 0.338
G62U C76U C85G | -2.1
G67C G88U C149A | ≤ -4.2
G67U C87U U104G C132G U144C U148G | ≤ -4.2
G62A G68C C87A | ≤ -4.2
A64C G83C U139C A150C G152U | ≤ -4.2
A60U U61A G84U G128A G140C U148C | ≤ -4.2
A64G C76U | -3.62
C63G G68U G71A U78G C85G G100A G141U | ≤ -4.2
G67C G94A C95G A150G | ≤ -4.2
G71C C87G G128A | ≤ -4.2
U61A A98U | -1.28
G68C A122C U127A | ≤ -4.2
A64C C72G A91C A106U U109G C123A U148C | ≤ -4.2

Variant | polymerase ribozyme fitness (log ratio)
G65A C96U | -1.03
A73C G92U C116G U144C | ≤ -4.2
C69U C87A U90A G117U | ≤ -4.2
U61A U101A | -1.08
G67U G74C A107U C123G | ≤ -4.2
A73G C85A U109G | -2.78
C72A C103G C118G U148G | ≤ -4.2
A73G G86U C105U A106U U144C | -3.89
A73C U127A U144G | ≤ -4.2
G62A G92A | -3.43
C69U A122U | -1.27
C72U C87A G117C G143U | ≤ -4.2
U61A C118G | -1.89
A64G C87A A115G C125A U148C C149G | ≤ -4.2
C69A U102C | ≤ -4.2
A64G G68A C85A | ≤ -4.2
G68A C99A | ≤ -4.2
G65A G126A | -0.138
C69A C95A C96G G152U | -3.59
C63A U102C | -0.926
C69A U90A A147C | ≤ -4.2

Variant | polymerase ribozyme fitness (log ratio)
C63U C99G | -1.04
U61G C72U | -1.45
G65A | -1.04
G65C | ≤ -4.2
G65U | -3.1
G65A G88U A150G | ≤ -4.2
G71C C87U | -3.34
C63G A73G G94A G136A | -0.0432
A66G A73C C85G A107U | ≤ -4.2
C72G A73C U102G C103G | ≤ -4.2
G68A C116A C123U | ≤ -4.2
G71A G84U U101C A142C | ≤ -4.2
A66G C114U | -4.17
C69A U134G | -3.35
A66G C87A | ≤ -4.2
A64U C75U C85U G136C | ≤ -4.2
C63U C72U C105A | -3.97
U61A G62A | -1.48
A60U U61C | ≤ -4.2
G62A C96A | -2.92
G67C C125G | ≤ -4.2

Variant | polymerase ribozyme fitness (log ratio)
C72G C96U | -4.02
G71C G94A | -3.93
A73G G81A G83A C96A A119U G124C | ≤ -4.2
C72A C103A | ≤ -4.2
C72U C85G C99G C114G | ≤ -4.2
C63G C125G U145C A150C | ≤ -4.2
G67A G83A | ≤ -4.2
G71A C93U | -2.94
C63U C85A | -3.57
G70A U82A C87G A89U C103A C105A | ≤ -4.2
G70A C105A C123A | ≤ -4.2
G62U G65A C103A | -3.94
C63U U134A | -2.6
C69A U90C | ≤ -4.2
C72G U127C G143U U144G | ≤ -4.2
A73G C75U C99A U101G A142G | ≤ -4.2
A73G C87U G92U A122U C131A | -4.1
A73G C149A | ≤ -4.2
C63G C75U C93U A120U | -0.964
G62A A73C C87G | ≤ -4.2
A73G A106C G141U | -1.34
